Five substances from publication PMC8982139 can be followed below.

The target in assay [1] is C.1086 UFO-v2-RQY^173 gp140 trimer (UFO-v2 with K166R/H170Q/H173Y) (HIV-1 (clade C, C.1086)). Briefly: negative-stain electron microscopy.
The target is the same in assay [2]. Kind of assay: native gel or EMSA. In general terms: A gel shift assay detects complexes by their altered migration in electrophoresis.
Assay [3] deals with C.1086 SOSIP gp140 (HIV-1 (clade C, C.1086)). Briefly: SEC. For orientation: Size exclusion chromatography separates by hydrodynamic size, large species first.
Assay [4] addresses C.1086 UFO-v2-RQH^173 gp140 trimer (UFO-v2 with K166R/H170Q, H173 kept) (HIV-1 (clade C, C.1086)). Kind of assay: negative-stain electron microscopy.
The target is the same in assay [5]. Kind of assay: native gel or EMSA.
For assay [6] the target is unchanged. Kind of assay: SEC.
Assay [7] has as its target C.1086 UFO-v2 gp140 trimer (UFO with E64K/T316W/A433P) (HIV-1 (clade C, C.1086)). Briefly: SEC.
Assay [8] has as its target C.1086 NFL (native flexibly linked, with I559P) gp140 trimer (HIV-1 (clade C, C.1086)). Kind of assay: SEC.

A word on the stoichiometry N: it is the number of molecules, sites or subunits per partner or assembly. Consider “C.1086 UFO-v2-RQY^173 gp140 trimer (UFO-v2 with K166R/H170Q/H173Y)”, for which the stoichiometry N in assay [1] and in assay [2] was 3 in each case. C.1086 SOSIP gp140 displayed a stoichiometry N in assay [3] of 3. “C.1086 UFO-v2-RQH^173 gp140 trimer (UFO-v2 with K166R/H170Q, H173 kept)”: the stoichiometry N in assay [4], in assay [5] and in assay [6] was 3 in each case. In assay [7], “C.1086 UFO-v2 gp140 trimer (UFO with E64K/T316W/A433P)” returned a stoichiometry N of 3. Regarding “C.1086 NFL (native flexibly linked, with I559P) gp140 trimer”, in assay [8], the stoichiometry N was 3.
